Experimental data taken from paper PMC4132801, “A Structural and Biochemical Model of Processive Chitin Synthesis” (The Journal of Biological Chemistry, 2014).

T1: SmNodC (Sinorhizobium meliloti, UniProt P04341)
T1 construct: gene nodC; full-length (1-426), C-terminal mCherry-His fusion from pEXmCherry, E. coli BL21(DE3) C43 membrane fraction, not purified
T1 sequence (P04341 1-426): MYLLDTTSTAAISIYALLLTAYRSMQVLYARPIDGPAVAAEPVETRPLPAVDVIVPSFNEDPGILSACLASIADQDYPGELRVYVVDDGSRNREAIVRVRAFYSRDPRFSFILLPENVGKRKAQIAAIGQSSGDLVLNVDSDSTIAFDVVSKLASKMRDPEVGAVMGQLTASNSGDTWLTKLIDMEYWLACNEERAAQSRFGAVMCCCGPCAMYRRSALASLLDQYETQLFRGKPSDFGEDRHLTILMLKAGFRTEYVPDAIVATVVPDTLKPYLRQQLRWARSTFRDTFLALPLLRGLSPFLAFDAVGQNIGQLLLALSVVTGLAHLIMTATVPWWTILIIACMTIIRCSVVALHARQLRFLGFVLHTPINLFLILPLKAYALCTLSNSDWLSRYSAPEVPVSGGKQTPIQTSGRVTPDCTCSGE


Experiments:
Assay in all cases: coupled fluorogenic assay: chitinase B releases 4MU from 4MU-chitooligosaccharide product
SmNodC = biological target: T1, SmNodC; assay type: biochemical
Source text: coupled fluorogenic assay: chitinase B releases 4MU from 4MU-chitooligosaccharide product on SmNodC | Nikkomycin Z is a competitive inhibitor with the substrate UDP-GlcNAc, with a Ki of […]

[1] = substrate: CC(=O)N[C@H]1[C@@H](OP(=O)(O)OP(=O)(O)OC[C@H]2O[C@@H](n3ccc(=O)[nH]c3=O)[C@H](O)[C@@H]2O)O[C@H](CO)[C@@H](O)[C@@H]1O; assay type: biochemical, Sinorhizobium meliloti; conditions: excess 4MU-GlcNAc as co-substrate, 10 mM MgCl2, pH 7.5, 250 mM NaCl, 20 °C, E. coli membrane fraction
[2] = substrate: CC(=O)N[C@H]1[C@H](Oc2ccc3c(C)cc(=O)oc3c2)O[C@H](CO)[C@@H](O)[C@@H]1O; assay type: biochemical, Sinorhizobium meliloti; conditions: acceptor substrate, excess UDP-GlcNAc as co-substrate, 10 mM MgCl2, pH 7.5, 250 mM NaCl, 20 °C, E. coli membrane fraction

Ki (SmNodC) | Molecule | Km [1] | Km [2]
250 nM | C[C@@H]([C@H](N)C(=O)N[C@H](C(=O)O)[C@H]1O[C@@H](n2ccc(=O)[nH]c2=O)[C@H](O)[C@@H]1O)[C@H](O)c1ccc(O)cn1 [Nikkomycin Z] | – | –
– | SmNodC (Sinorhizobium meliloti 1021) (protein, full-length (1-426), C-terminal mCherry-His fusion from pEXmCherry, E. coli BL21(DE3) C43 membrane fraction, not purified) MYLLDTTSTAAISIYALLLTAYRSMQVLYARPIDGPAVAAEPVETRPLPAVDVIVPSFNEDPGILSACLASIADQDYPGELRVYVVDDGSRNREAIVRVRAFYSRDPRFSFILLPENVGKRKAQIAAIGQSSGDLVLNVDSDSTIAFDVVSKLASKMRDPEVGAVMGQLTASNSGDTWLTKLIDMEYWLACNEERAAQSRFGAVMCCCGPCAMYRRSALASLLDQYETQLFRGKPSDFGEDRHLTILMLKAGFRTEYVPDAIVATVVPDTLKPYLRQQLRWARSTFRDTFLALPLLRGLSPFLAFDAVGQNIGQLLLALSVVTGLAHLIMTATVPWWTILIIACMTIIRCSVVALHARQLRFLGFVLHTPINLFLILPLKAYALCTLSNSDWLSRYSAPEVPVSGGKQTPIQTSGRVTPDCTCSGE | 90 ± 15 µM | 1.6 ± 0.4 mM
